Laboratory results published in patent US20140127777A1 (CALIFORNIA INSTITUTE OF TECHNOLOGY, published 2014).

How the values were obtained:
[1] = molecular target: the molecule itself; assay: CD thermal unfolding, global two-state fit of the monomer to dimer transition, 1 M standard state
Method: Circular Dichroism (CD) Analysis. CD spectra were recorded on an Aviv 62DS spectropolarimeter (Lakewood, N.J.) in PBS buffer, pH 7.4. All peptide concentrations were determined by amino acid analysis of a stock solution (5 mg/ml). Experiments were performed in a rectangular cell with pathlength of 1 cm for low concentration samples and pathlength of 1 mm for high concentration samples. Spectra were scanned from 250 nm to 200 nm with data taken every 1 nm. The temperature of the solution was maintained by a thermostatically controlled cuvette holder (HP model 89101A). Temperature scans were performed from 0° C. to 100° C. in 1° C. steps. Three scans were performed on a single sample and averaged. Each data point was collected after 30 seconds of thermal equilibration at the desired temperature. Urea titration scans were performed manually starting with the 8 M concentrated sample followed by serial dilution to the desired urea concentration. At each concentration, the sample was allowed to equilibrate for 5 min before recording the CD signal.

[2] = molecular target: the molecule itself; assay: CD thermal unfolding, global two-state fit of the monomer to dimer transition; difference against A1-WT at 37 °C

| Protein | ΔG° (37° C.) [1] | ΔΔG° [2] |
| --- | --- | --- |
| A1-WT (designed binder, Expressed in E. coli from pQE-A1 with an N-terminal His-tag; Forms dimeric coiled coils; entered as the single chain; also called wild-type A1) MRGSHHHHHHGSMASGDLENEYAQLEREVRSLEDEAAELEQKVSRLKNEIEDLAEIGDLNNTSGIRRPAAKLN | -44.8 kJ/mol |  |
| FA1-92 (designed binder, leucines (eight per chain) replaced by 5,5,5-trifluoroleucine to 92% by amino acid analysis; mixed population of (2S,4S) and (2S,4R) diastereomers, Expressed in an E. coli leucine auxotroph in medium with trifluoroleucine; The sample is heterogeneous; its main MALDI peak of 8736 corresponds to 8 substitutions; also called 92% fluorinated A1) MRGSHHHHHHGSMASGDLENEYAQLEREVRSLEDEAAELEQKVSRLKNEIEDLAEIGDLNNTSGIRRPAAKLN | -54.8 kJ/mol | -10 kJ/mol |
